Target: crx_bovin CRX (UniProt Q9XSK0)
Sequence (Q9XSK0 whole entry): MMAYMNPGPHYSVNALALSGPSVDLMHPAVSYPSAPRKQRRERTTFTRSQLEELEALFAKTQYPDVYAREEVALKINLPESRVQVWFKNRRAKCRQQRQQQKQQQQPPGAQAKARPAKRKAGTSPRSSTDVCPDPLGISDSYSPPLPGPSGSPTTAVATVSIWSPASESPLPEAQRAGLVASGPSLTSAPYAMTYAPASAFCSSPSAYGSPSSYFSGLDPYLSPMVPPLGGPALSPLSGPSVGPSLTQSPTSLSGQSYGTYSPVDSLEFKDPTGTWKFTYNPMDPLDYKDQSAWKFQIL

Chain of Retina and anterior neural fold homeobox protein 2 (Bos taurus (Bovine)), Q7YRX0 G137R (Q7YRX0 whole entry G137R): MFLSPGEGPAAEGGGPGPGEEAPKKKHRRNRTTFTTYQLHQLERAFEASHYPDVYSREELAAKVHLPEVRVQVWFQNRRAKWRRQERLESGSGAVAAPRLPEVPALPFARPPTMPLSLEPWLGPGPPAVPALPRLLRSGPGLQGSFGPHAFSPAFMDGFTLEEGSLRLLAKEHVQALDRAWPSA

With “Retina and anterior neural fold homeobox protein 2 (Bos taurus (Bovine)), Q7YRX0 G137R” the “effect of a mutation on the interaction” value was “decreasing interaction”.

— IntAct's records for PubMed 15028672
